Measured values reported in publication PMC5383425, “Differential CLE peptide perception by plant receptors implicated from structural and functional analyses of TDIF-TDR interactions” (PLoS ONE, 2017).
Where a chain is given by its changes, count along the chain named. Square brackets hold non-standard residues; d marks the D form. Ends that are not written are not given here. Hyp = O=C(O)[C@@H]1C[C@@H](O)CN1

How the values were obtained:
Assay in all cases: ITC; 0.5–1 mM peptide titrated into 10–40 μM ecdTDR; 25°C; 10 mM sodium citrate, 100 mM NaCl, pH 5.5; fitted to one set of binding sites; MicroCal Auto-iTC200
Conditions in all cases: both partners purified
ecdTDR R421A mutant = biological target: T1, ecdTDR R421A mutant (Arabidopsis thaliana, UniProt Q9FII5 30-642, single alanine substitution of R421)
T1 construct: TDR/PXY of A. thaliana, extracellular domain, residues 30-642; also called single alanine substitution of R421; source: High Five insect cells (baculovirus), secreted, purified as the wild type (Ni-NTA, size-exclusion chromatography)
T1 sequence (looked up): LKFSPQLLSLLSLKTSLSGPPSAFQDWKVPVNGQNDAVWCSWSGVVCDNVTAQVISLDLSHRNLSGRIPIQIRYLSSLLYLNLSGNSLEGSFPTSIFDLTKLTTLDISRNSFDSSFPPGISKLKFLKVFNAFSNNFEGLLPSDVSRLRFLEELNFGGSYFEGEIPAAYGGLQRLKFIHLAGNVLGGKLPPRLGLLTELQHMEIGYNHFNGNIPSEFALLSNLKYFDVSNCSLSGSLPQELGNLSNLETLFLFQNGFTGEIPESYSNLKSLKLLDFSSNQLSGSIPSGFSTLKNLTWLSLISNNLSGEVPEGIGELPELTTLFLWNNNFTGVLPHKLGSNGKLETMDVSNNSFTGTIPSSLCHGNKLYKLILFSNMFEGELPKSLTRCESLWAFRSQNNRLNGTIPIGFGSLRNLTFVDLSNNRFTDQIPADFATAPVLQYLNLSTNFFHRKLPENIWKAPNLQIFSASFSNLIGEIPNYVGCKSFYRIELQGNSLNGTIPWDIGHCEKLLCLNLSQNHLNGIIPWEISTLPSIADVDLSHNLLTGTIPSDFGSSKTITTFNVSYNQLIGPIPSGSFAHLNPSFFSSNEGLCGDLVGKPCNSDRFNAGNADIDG

[1] = biological target: T2, TDR-R421A/R423A double mutant (ecdTDR) (Arabidopsis thaliana, UniProt Q9FII5 30-642, R421A | R423A)
T2 construct: TDR/PXY of A. thaliana, extracellular domain, residues 30-642; source: High Five insect cells (baculovirus), secreted, purified as the wild type (Ni-NTA, size-exclusion chromatography)
T2 sequence (looked up): T1 sequence (looked up) with R394A

[2] = biological target: T3, ecdTDR F279 alanine mutant (Arabidopsis thaliana, UniProt Q9FII5 30-642, alanine substitution of F279)
T3 construct: TDR/PXY of A. thaliana, extracellular domain, residues 30-642; The text says only 'mutational analyses' of F279; source: High Five insect cells (baculovirus), secreted, purified as the wild type (Ni-NTA, size-exclusion chromatography)
T3 sequence (looked up): T1 sequence (looked up) with F250A, A392R

B1: Tracheary Element Differentiation Inhibitory Factor (TDIF) peptide (peptide)
peptide: HEV[Hyp]SG[Hyp]NPISN
notes: TDIF, the 12-residue CLE peptide processed from CLE41 and CLE44 of A. thaliana; printed as HEV(Hyp)SG(Hyp)NPISN; numbers count on: the 12-residue peptide; CLE44 encodes the same peptide; also called wild type TDIF; wtTDIF; source: synthetic peptide (peptide 2.0)
B1 was tested, and the binding result (ecdTDR R421A mutant) was “binds”, the “fold lower affinity than wild-type ecdTDR” value [1] was 3 fold and the binding result [2] was “binds”.
